± gives the standard deviation.
Experiment: collision cross section of modified peptide (TIMS, N2, iRT-aligned); higher = larger / more extended gas-phase ion
How it was run: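 On a timsTOF Pro/HT (dda-PASEF, nitrogen, ~2.4 mbar), synthetic peptide pools were analysed after a 120-min nanoflow C18 separation at 60 °C and identified in MaxQuant. Three reference ions served for 1/K0 calibration, with run-wise alignment to the median iRT peptide deviation. Collision cross section comes from the Mason-Schamp equation, using the most abundant feature per charge state averaged over 1–3 technical replicates.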

[1] = charge state: 2, modification: Biotin
[2] = charge state: 3, modification: Biotin
[3] = charge state: 2, modification: GlyGly (K)
[4] = charge state: 3, modification: GlyGly (K)
[5] = charge state: 2, modification: HexNAc (ST)
[6] = charge state: 3, modification: HexNAc (ST)
[7] = charge state: 2, modification: Hydroxyproline
[8] = charge state: 2, modification: Phospho (Y)
[9] = charge state: 3, modification: Methyl (R)
[10] = charge state: 2, modification: Succinyl
[11] = charge state: 2, modification: Methyl (K)
[12] = charge state: 3, modification: Methyl (K)
[13] = charge state: 3, modification: Dimethyl (K)
[14] = charge state: 2, modification: hydroxyisobutyryl
[15] = charge state: 3, modification: hydroxyisobutyryl
[16] = charge state: 3, modification: Trimethyl (K)
[17] = charge state: 2, modification: Citrullination (R)
[18] = charge state: 2, modification: Nitro (Y)
[19] = charge state: 2, modification: Butyryl
[20] = charge state: 3, modification: Butyryl
[21] = charge state: 2, modification: Methyl (R)
[22] = charge state: 2, modification: Crotonyl
[23] = charge state: 3, modification: Citrullination (R)
[24] = charge state: 2, modification: Trimethyl (K)
[25] = charge state: 2, modification: Malonyl

## DDSFLGKLGGTLAR [_DDSFLGK(Biotin)LGGTLAR_]
[1]
  collision cross section: 427.7 ± 0.62 Å²
[2]
  collision cross section: 505.13 Å²

## ASDTSSETVFGKR [_ASDTSSETVFGK(GlyGly (K))R_]
[3]
  collision cross section: 414.9 ± 1.4 Å²
[4]
  collision cross section: 487.28 ± 2 Å²

## KVTLSVLSR [_KVT(HexNAc (ST))LSVLSR_]
[5]
  collision cross section: 375.11 ± 0.13 Å²
[6]
  collision cross section: 463.47 ± 1 Å²

## DYQPGITFIVVQKR [_DYQP(Hydroxyproline)GITFIVVQKR_]
[7]
  collision cross section: 449.25 ± 1.9 Å²
Charge state: 3, modification: Hydroxyproline
  collision cross section: 517.44 ± 1.2 Å²

## LYDIDVAK [_LY(Phospho (Y))DIDVAK_]
[8]
  collision cross section: 363.27 ± 0.78 Å²

## DSSPTTNSKLSALQR [_DSSPTTNSK(GlyGly (K))LSALQR_]
[3]
  collision cross section: 434.5 ± 1.6 Å²
[4]
  collision cross section: 501.52 ± 0.79 Å²

## IVEKYGYTHLSAGELLR [_IVEK(Gluratylation)YGYTHLSAGELLR_]
Charge state: 3, modification: Glutarylation
  collision cross section: 567.6 ± 0.21 Å²

## QQETAAAETETR [_QQETAAAETET(HexNAc (ST))R_]
[5]
  collision cross section: 397.03 ± 0.67 Å²
[6]
  collision cross section: 483.44 ± 0.18 Å²

## YSRGAGLGFSTAPNK [_YSR(Methyl (R))GAGLGFSTAPNK_]
[9]
  collision cross section: 478.19 ± 2.5 Å²

## VDIDAPDVSIEGPDAKLK [_VDIDAPDVSIEGPDAK(Succinyl)LK_]
[10]
  collision cross section: 469.67 ± 0.79 Å²

## VYIASSSGSTAIKK [_VYIASSSGSTAIK(Methyl (K))K_]
[11]
  collision cross section: 428.78 ± 1.9 Å²
[12]
  collision cross section: 495.87 ± 3.1 Å²

## ANEKTESSSAQQVAVSR [_ANEK(Dimethyl (K))TESSSAQQVAVSR_]
[13]
  collision cross section: 490.79 ± 1.6 Å²

## VNIGQGSHPQKVK [_VNIGQGSHPQK(hydroxyisobutyryl)VK_]
[14]
  collision cross section: 435.4 ± 0.33 Å²
[15]
  collision cross section: 488.96 ± 2.8 Å²

## SLYASSPGGVYATR [_SLYAS(HexNAc (ST))SPGGVYATR_]
[5]
  collision cross section: 421.13 ± 0.62 Å²

## PGLQGPR [_P(Hydroxyproline)GLQGPR_]
[7]
  collision cross section: 288.12 ± 3.8 Å²

## DAIHFYNKSLAEHR [_DAIHFYNK(Trimethyl (K))SLAEHR_]
[16]
  collision cross section: 498.17 ± 1.1 Å²

## GRGGPGPAQR [_GR(Citrullination (R))GGPGPAQR_]
[17]
  collision cross section: 319.56 ± 0.91 Å²

## LPEYPQVDDLLLR [_LPEY(Nitro (Y))PQVDDLLLR_]
[18]
  collision cross section: 424.61 ± 1.1 Å²

## IQTKAGEATVK [_IQTK(Succinyl)AGEATVK_]
[10]
  collision cross section: 366.8 ± 0.24 Å²

## VFIGNLNTLVVKKK [_VFIGNLNTLVVK(GlyGly (K))KK_]
[4]
  collision cross section: 502.69 ± 1.1 Å²

## DVNAAIAAIKTK [_DVNAAIAAIK(Butyryl)TK_]
[19]
  collision cross section: 406.92 ± 0.23 Å²
[20]
  collision cross section: 469.41 Å²

## GRGGPGPAQR [_GR(Methyl (R))GGPGPAQR_]
[21]
  collision cross section: 327.6 ± 3 Å²
[9]
  collision cross section: 431.84 ± 5.1 Å²

## FRSGNYR [_FR(Methyl (R))SGNYR_]
[21]
  collision cross section: 333.09 ± 1 Å²
[9]
  collision cross section: 399.51 ± 0.82 Å²

## SPDEAYAIAKK [_SPDEAYAIAK(Crotonyl)K_]
[22]
  collision cross section: 376.34 ± 0.8 Å²
Charge state: 3, modification: Crotonyl
  collision cross section: 442.81 ± 1.6 Å²

## IPQEKCILQTDVK [_IPQEK(Crotonyl)CILQTDVK_]
[22]
  collision cross section: 433.54 Å²

## TEVLSPNSKVESK [_TEVLSPNSK(Butyryl)VESK_]
[19]
  collision cross section: 418.57 ± 0.77 Å²
[20]
  collision cross section: 463.23 ± 20 Å²

## ASNAAVKLAESK [_ASNAAVK(Methyl (K))LAESK_]
[11]
  collision cross section: 380.84 ± 0.65 Å²
[12]
  collision cross section: 450.44 ± 4.8 Å²

## SLGEPAAGEGSAKR [_SLGEPAAGEGSAK(hydroxyisobutyryl)R_]
[14]
  collision cross section: 389.47 ± 1.5 Å²
[15]
  collision cross section: 485.86 ± 2.8 Å²

## DTPTSAGPNSFNKGK [_DTPTSAGPNSFNK(Methyl (K))GK_]
[11]
  collision cross section: 405.71 ± 2.7 Å²
[12]
  collision cross section: 460.78 ± 4.6 Å²

## GTITVSAQELKDNR [_GTITVSAQELK(Succinyl)DNR_]
[10]
  collision cross section: 421.79 ± 0.53 Å²
Charge state: 3, modification: Succinyl
  collision cross section: 480.4 ± 2.5 Å²

## FGTINIVHPKLGSYTK [_FGTINIVHPK(Butyryl)LGSYTK_]
[19]
  collision cross section: 477.38 ± 1.1 Å²
[20]
  collision cross section: 553.18 ± 2.9 Å²

## SVGGSGGGSFGDNLVTR [_SVGGSGGGSFGDNLVT(HexNAc (ST))R_]
[5]
  collision cross section: 423.68 ± 0.13 Å²

## HSPTLPEPGGLRLELPLSR [_HSPTLPEPGGLR(Citrullination (R))LELPLSR_]
[23]
  collision cross section: 513.82 ± 1.9 Å²

## YIEIYVQKVNPSR [_YIEIYVQK(GlyGly (K))VNPSR_]
[3]
  collision cross section: 453.07 ± 1.4 Å²
[4]
  collision cross section: 515.19 ± 0.35 Å²

## VNVEAPDVNLEGLGGKLK [_VNVEAPDVNLEGLGGK(hydroxyisobutyryl)LK_]
[14]
  collision cross section: 461.55 ± 2 Å²
[15]
  collision cross section: 550.67 ± 0.8 Å²

## LQAAYAGDKADDIQK [_LQAAYAGDK(Trimethyl (K))ADDIQK_]
[24]
  collision cross section: 440.52 ± 0.59 Å²
[16]
  collision cross section: 477.2 ± 1.8 Å²

## SFEDIHQYR [_SFEDIHQY(Nitro (Y))R_]
[18]
  collision cross section: 368.15 ± 0.17 Å²
Charge state: 3, modification: Nitro (Y)
  collision cross section: 453.82 ± 1.2 Å²

## GTISAPGKVVTAAAQAK [_GTISAPGK(Trimethyl (K))VVTAAAQAK_]
[24]
  collision cross section: 476.61 ± 0.99 Å²
[16]
  collision cross section: 496.52 ± 0.86 Å²

## APPIDRSILPTAPR [_APPIDR(Citrullination (R))SILPTAPR_]
[17]
  collision cross section: 410.86 ± 0.21 Å²
[23]
  collision cross section: 480.52 ± 0.41 Å²

## LEEVTGKLQVAR [_LEEVTGK(GlyGly (K))LQVAR_]
[3]
  collision cross section: 407.08 ± 0.86 Å²
[4]
  collision cross section: 463.74 ± 1.1 Å²

## DFDTALKHYDK [_DFDTALK(GlyGly (K))HYDK_]
[3]
  collision cross section: 400.17 ± 0.77 Å²
[4]
  collision cross section: 467.02 ± 1.1 Å²

## EGFSIPVSADGFK [_EGFSIPVS(HexNAc (ST))ADGFK_]
[5]
  collision cross section: 412.81 ± 0.62 Å²

## DKALPLEAEVAPVK [_DK(Malonyl)ALPLEAEVAPVK_]
[25]
  collision cross section: 414.83 ± 0.6 Å²

## AGPNASIISLKSDK [_AGPNASIISLK(Trimethyl (K))SDK_]
[24]
  collision cross section: 422.03 ± 0.65 Å²
[16]
  collision cross section: 457.38 ± 2.4 Å²

## GEVGAGAGPGAQAGPSAKR [_GEVGAGAGPGAQAGPSAK(Malonyl)R_]
[25]
  collision cross section: 415.94 ± 0.58 Å²
Charge state: 3, modification: Malonyl
  collision cross section: 468.8 ± 1.8 Å²

## AAINQKLIETGER [_AAINQK(Dimethyl (K))LIETGER_]
Charge state: 2, modification: Dimethyl (K)
  collision cross section: 413.1 ± 1.4 Å²
[13]
  collision cross section: 468.56 ± 2.6 Å²

## AGQKLIDVNHYAK [_AGQK(Biotin)LIDVNHYAK_]
[1]
  collision cross section: 451.79 ± 0.62 Å²
[2]
  collision cross section: 517.92 ± 3.1 Å²

## VGIDTPDIDIHGPEGKLK [_VGIDTPDIDIHGPEGK(Methyl (K))LK_]
[11]
  collision cross section: 463.74 Å²
[12]
  collision cross section: 542.59 ± 0.45 Å²

## TQDQISNIKYHEEFEK [_TQDQISNIK(GlyGly (K))YHEEFEK_]
[4]
  collision cross section: 559.05 ± 0.57 Å²

## GYDVIAQAQSGTGK [_GY(Nitro (Y))DVIAQAQSGTGK_]
[18]
  collision cross section: 387.17 ± 0.17 Å²

## VYVGNLGTGAGK [_VY(Phospho (Y))VGNLGTGAGK_]
[8]
  collision cross section: 364.53 ± 0.064 Å²

## VDVEVPDVSLEGPEGKLK [_VDVEVPDVSLEGPEGK(Trimethyl (K))LK_]
[24]
  collision cross section: 461.69 ± 0.55 Å²
[16]
  collision cross section: 507.27 ± 0.86 Å²

## DKALPLEAEVAPVK [_DK(Butyryl)ALPLEAEVAPVK_]
[19]
  collision cross section: 418.05 ± 4.9 Å²

Source: the supplement of paper PMC10598134
